Protein production data for 19 sequences are collected here from a protein production outcome set (Wang et al. 2014).

A short description of the data set: label from the status in PepcDB records.

“MSREKIEANREKILNGPIVPTLLVLAYPIIINQLVHVLYNLTDTFWLGKLGRIELSAPGTAWPLVWFLMSIGSGFVVAGFAFVSQYIGAGDYEKANRYAGALYSLLLIFATGMSIFGIVLAPYFLRFMKVSETIFPYALTYTRIIFAGIPFSFTLFAFNFLLRAIGDTKTPVKINIGTIILNIILDPFFIFGWGPFPRLGVAGAAIATMLSNSVGSLIGGYLLFTGKVGIHLTLENLKPDLKFYSRIFRVGLPSSIGDSTSALGFVVLTRVIFTVGRIYGEAHGIKGYEDVAFPTYSITNRLTNFMFAFSDGISMAMGTMVGQNIGARKYERAKEIAEKAMLINFTILSIGTLLFAIFRVPIFKFFVNDPMVIAESKKVVMYFSASLPFFGIFSAVNQVFNSAGHTKKSMVLGIIRLWILRIPLSYWLGVAMKDTAGMWLGMGLSNVIGALIGLAWFLKGSWLRGVIEEHH”: the protein production entry is listed as “failed”. For the sequence “MSRFRSLLQASVNATKKALTWNVEEWVPPAEKHIFKFHSKEDLKKWHLYSDSEYGGLSSASLEIPDKGDGSDCTGVFSGNLSVDLSEGSKWNISRSGFCGMRSKKFDGFIDLDGYDAIALRIRGDGRCYISTIYTENWVNSPGQSEDNSWQAFVFAPKDSWYTAKIPLARYLPTWRGNVIDVEMEMNPGRVLGMSLSVNAEGGAVGAKSGAGDFRVEIDWIKALRLP”, the protein production entry is “failed”.

Take “MSRKPRYSLALEVEPANPNEAYRHYMKKLSYETDIADLSIDIKKGYEGIIVVDVRDAEAYKECHIPTAISIPGNKINEDTTKRLSKEKVIITYCWGPACNGATKAAAKFAQLGFRVKELIGGIEYWRKENGEVEGTLGAKADLFWNMKKESKNKKSLDGSTQ”: the protein production entry is on record as “failed”. Turning to “MSRKYFVGGNFKCNGTKESLKTLIDSFKQVESSNSEVYVFPTSLHISLVKEFFGNDHPGVFKIGSQNISCTGNGAFTGEVSCEMLKDMDVDCSLVGHSERRQYYSETDQIVNNKVKKGLENGLKIVLCIGESLSERETGKTNDVIQKQLTEALKDVSDLSNLVIAYEPIWAIGTGVVATPGQAQEAHAFIREYVTRMYNPQVSSNLRIIYGGSVTPDNCNELIKCADIDGFLVGGASLKPTFAKIIESAQ”, the protein production result is listed as “not failed”. Regarding “MSRLSAAAIELFEDLIRQQVEDKAIPSISYGLVDRDGLMGAGHIQRHDRGFVMGDDTCFRIGSITKTFTAVAVMQLAEKGLVDLDVDVSEYLPGFKPQNPFAGREGGPHGAQISLRKLMSHTAGLVREPKSGHYLDAARPPLADTVAELATSTLKQDPSLGQMHYSNAGIAVAGRVIETLTRKSYAEYVSENILKPLGMDQTSSGLAPGIAERLAPADMWTLEGDSPAPVFDLGGPPAGNIYSTTSDMARYVQCLLRGGFAPDGWQIVSPGSLREMWVPIGKRASGERVANTYGLCFGVGDVDGWTSVGHGGAVYGYSSQMILLPAAGVGVLIFSTLDFSNQIGARLGVEGLRIALAERRMGTLPVRPQGLPPVAADQLVALPGHYRHDTSGEVVEVKAKAGKLFLMGEGVPLQIRPVAGSDFTIDGRIYGHGAEYPHMNLSFPAPGALVWKGVNWSRIDALPAEAVPAEIAPHLGEYGPDFNITYLSYSHGELKCLIEYFCTHGCEPVEAGRFRMRGLLYEEEILEIDAIDDHGRRGIRVGPMFLERRHAPAA”, the protein production result was “failed”. The same measure for “MSRQQNEEDTNSVLFDARNEYYIGNFMGSINFVLPEQGTAGPELLSYMYLSYLAIDSGRIVASDIKEGNSTPLQALRLVHEAFEQPSRTEELLEKLTDKVAGEEDETNIWHLATAIVYCHDGQFENALKILHGSTNLESMALSVQCLLRLQRVDLAKQLVAKMQEISDDATLTQLAQAWVALAQGTEQMQDAFHIYQEFCEKFKPTPALLNGQAVVHLGLERYEEADSVLRESLLKKHNDYDTLINLMVHAHLTGKPTEAITRNLEQLRQFYPKSDFVTDLDKKSAEFDRLCLQYDVEGGEKLLAV”: “failed”.

For the sequence “MSRRDQLFSAMTASYVIAVTLAIVIAAIFAPVIWNGVPSGGDDDPSVAVITLRGGTTDANVNAVKQDLREARTNESIEAVVLRVDSPGGPVDSSEEFYLAVNRTASEMPVVAYVEGTAASGGYYGITPADEIVVKPSSNVGSIGVIVQAPLSLIEQVEQQGETFVRSGPDKAQISKDSLREDIEVLQRSFVGTVMRHRGEQLTVSREEVANGGTYLGAQATENGFADRIGDTGLAIERAAALSDDIEGDQYDVVYQGSGGAEFNVIIVPAGAETVQGANNVTYLVHPDNSETTFREPVKYYAVWGIPAEDNNATVIRND”, the protein production entry is listed as “failed”.

For the sequence “MSRRKKAYQGRKIGSQLLATLESEARKKVGYLQVKTVAEGSNKDYDRTNDFYRGLGFKKLEIFPQLWNPQNPCQILIKKLE”, the protein production entry is reported as “failed”. The entry for “MSRRTTLRRVGLLVLGVNLLLVLLKAGVWLTTGSFAVQSEAVNSAADTAYSLVIVAGLYLTTRPPDFEHPHGHERIEPFVSLFVAAGIFAAGGFVLWNAGTALLTGNISVTQGPAAVLVLAFSAVAKYALYRYCLRAGTDRNSPALIATAKDNRNDILTAGAALVGVGGAMAGYPIADPLAALVVAIGIIYTGIEVVQENVTYLVGGAPPEDLRREILRRALDHPKVSGAHDVIAHYVGPEIDVSLHIEVEGDLTLFEAHDIETAVIKSIEELPEVDDAFIHVDPKELGEWKDDEEVERLADLE” is “failed”; for “MSRSLVFGTAGLALLLAAGGLLYSFGPDERRARAAPTPPDTTDTSGVYSQRAPSRNGIGKVYMGREISKVMGHRGANWLERPARAEKERPDLLVDSLPLGPSDTVADIGAGTGYLSFRVAPRVPQGNILAVDIQPEMLNMMRERIDERGVDNVTPIRGTVTDPQLPADSVDLAYMVDAYHEFSHPYEMMTALMEDLTPGGRVVLVEYPREDPSIPIKTLHKMTEAQAKKEMRAVGLEWVETKDMLPRQHFMVFRKPVE” it is “failed”; for “MSRSRHCPAVLIAAPASGQGKTTVTAALARLHRNLGRKVRVFKCGPDFLDPMILERASGAPVYQLDLWMIGAEESRRLLWEAAGEADLILIEGVMGLFDGTPSSADLARHFGVPVLAVIDGTAMAQTFGALALGLARYQADLPFAGVLANRVGSLRHAQLLEGSLTEGLRWYGGLSRERGIELPSRHLGLVQASELNDLDTRLDAAAEALGASCDAALPPPVSFAEPEPQACVASLAGVRIGVARDEAFAFIYGANLDLLRNLGAQLVFFSPLHDHELPAVDSLYLPGGYPELHHHALAANAPMCEAIRAHHAQGKPLLAECGGMLYLLDALTDVAGERAELLGLLPGEATMQKRLAALALQAVELPEGTLRGHTYHHSLTSTALEPIARGLSPNGGRGNEAVYRLGRLTASYVHFYFPSCPDAAAALLRP” it is “failed”. As for “MSRSTLQPARISRVLPDSIAAEIGFEPGDAIISINGQQPRDLIDYQFLCSDEFLELEVLDAAGRSHQIEIEKDTDEGLGLEFETALFDGLIQCNNRCPFCFIDQQPPGKRESLYYKDDDYRLSFLYGSYLTLTNLSEAEWRRIAQLRLSPLYVSVHATEPDLRRRLLKNERAGLIGEQLHWFRQQQLQIHAQVVVCPDLNDGAQLQRTLMDLAEFHRGDPATVASVAVVPVGLTRFRPTEDELRPVQPADAAATIALVEALQTQFQTELGSRFAWLADEWYLIAGQPLPSASWYEQYPQLENGVGSIRAFISEFERQAATLPSQIEPARRLTWVVGNVVGQAFQPLQARLNAVQGLKVDLVGLASRYWGQTLTVTGLLTGQDLIEVLSDRDLGDGLLLPSLILLHGYRCFLDDLTVAEVEKALHTPIFVAEGITGLLTECLRSPLAATVQDH”, the protein production result is “failed”.

On to “MSRSTRSDQNARIRQRLGQPESGWRQRWYTIIFEADTRPGRTFDIVLLVAIIASVAVVMLDSIQAIHARLGTVFTALEWLFTLLFTTEYIMRLSVVRRPLRYVFSFYGIIDFLSIIPTWASFFVPELAFLIDVRLLRLLRVFRILKLTVYFEEAEILMLALSNSRRKIFVFLGTVFIITVILGTIMYVVEGPTHGFTSIPVSMYWAIVTLTTTGFGDMVPKTPIGQFITSITILLGYGIIAFPTGIVGAELAASIIRRPLTTRSCEHCLTEGHEPDATFCKHCGTALPEYRTELATDRRGDDGSRSR”, for which the protein production result is “failed”.

As to “MSRTILQPGQIEAAANIPPHLHQPSRDLFARRGERLLQLAEGHPMGDYLRLVAGLCRLQQALLDNPPALAPLDPERLRKSREHGMPPLAYDLLVREGAWLPWLDALLAGYPAPANAAVGAALEQLREAEEGQRKAWAIALLSGQFDLLPAALVPFLGAALQVAWSHWLLGLEEGAVVETESRTLCPACGSPPMAGMIRQGGKETGLRYLSCSLCACEWHYVRIKCSHCEESKHLAYLSLEHDGQPAEKAVLRAETCPSCQGYLKQFYLEFDRHADALADDLASLALDMRLAEDGYLRRSPNLLLAPGGE”, the protein production result was “not failed”. The same measure for “MSRVAPRDSAAQAASAVAESVRYQGRKASRQGSEQRRQAILDAAMRLIVRDGVRAVRHRAVAAEAQVPLSATTYYFKDIDDLITDTFALFVERNAEALSAFWSSVEGDLQEMAAVLADDPGARGSLVERIVELAVQYVQVQLTERREHLLAEQAFRQEALLNPRLRELADAHQRILSLGAVHFFQVLGSGQPEQDAKVLTSIILQMEYQGLVDGVEQLAVDEMRAILRRYLNLVMGL”: “not failed”; for “MSRVKNVVELLETKGVDALYLTKKTNVNYISGFPDEEAYAVICKDGNFLVTDSRYMELAEKVCKDFEIINWHNFDRSVAKAVKSVCDKVGIKKLGFERTNIVFDKYEELKNLIEKDNGELIPTENIVETLRYVKDKDEIKNTRKACEIADKALEELIPHIKAGVSEIELATKLEYFMKMNGAQNIGFETILISGAKTSLLHGKPSDKIIEKGDFVLIDYGAMYNGYISDTTRTFIVGGASEKQLEIYNLVKEAQNVGVENMKAGVHATIPDAEIRKVVKKYEDYYYQGIGHGVGRDVHEEPFIGNYGDKIIEEGCIITMEPGIYFPGWGGVRIEDTVLITKNGPERLTKFPKDLMILDK”: “failed”; for “MSSARFDSSDRSAWYMGPVSRQEAQTRLQGQRHGMFLVRDSSTCPGDYVLSVSENSRVSHYIINSLPNRRFKIGDQEFDHLPALLEFYKIHYLDTTTLIEPAPRYPSPPMGSVSAPNLPTAEDNLEYVRTLYDFPGNDAEDLPFKKGEILVIIEKPEEQWWSARNKDGRVGMIPVPYVEKLVRSSPHGKHGNRNSNSYGIPEPAHAYAQPQTTTPLPAVSGSPGAAITPLPSTQNGPVFAKAIQKRVPCAYDKTALALEVGDIVKVTRMNINGQWEGEVNGRKGLFPFTHVKIFDPQNPDENE”: “not failed”.

“MSSASGLRRGHPAGGEENMTETDAFYKREMFDPAEKYKMDHRRRGIALIFNHERFFWHLTLPERRGTCADRDNLTRRFSDLGFEVKCFNDLKAEELLLKIHEVSTVSHADADCFVCVFLSHGEGNHIYAYDAKIEIQTLTGLFKGDKCHSLVGKPKIFIIQACRGNQHDVPVIPLDVVDNQTEKLDTNITEVDAASVYTLPAGADFLMCYSVAEGYYSHRETVNGSWYIQDLCEMLGKYGSSLEFTELLTLVNRKVSQRRVDFCKDPSAIGKKQVPCFASMLTKKLHFFPKSNLEHHHHHH”: the protein production result is reported as “failed”. The entry for “MSSDESSDGLEELQSLKALYGQQEQEKPAKIKRERYIPKASQAKELNYVEVPMEKVLFGDRQRLLTNLAKSVGQKLPNDDEDEQEENPGQAKPGDKRKAAWSDSDDEDLQVGDVKKATKHTGPLNHLRKDKSYKEYLTARFQRTLNQPKWAEKKVKNEDDEDVSSDEELLRTVGFIDRKARNSDLPQKTLNFKRVKDLNRATYAEGNATSIQFHPTSTAALVAGMNGLATIYAVDGQKNERLHNMRFKKFPLACSRIAPCGTRAFFGSVKPFYYSYDLLEAKESKLKLPGAMEFMHRFEVSPCGKFIVTAGKFGAIHLLTAKTNELLHSFKQEGKVKGFTWSSDSKRILVCGSTSNVSVLNLRQNLIEHIFMDDGCIHGESIQLSPNQRLLATGSQEGVVNIYDYESIFASKAPQPEKRFMNLRTAITDLQFNHSSELLAMCSSEAPNAFKLAHFPSATVYSNFPAQNEKVGFVTSMAFSPHSSFLAFATKGKQVPLFRLKYFKGY” is “failed”.
